Experimental data reported in patent publication US20260184748A1 (University of Pennsylvania, published 2026).
Where no end group is shown, it is not given here.

Assays:
Assay in all cases: cell-based or functional assay
[1] = target: HTR5A (UniProt P47898 1-357)
[2] = target: MRGPRX1 (UniProt Q96LB2 1-322)
[3] = target: NMBR (UniProt P28336 1-390)
[4] = target: OPRD1 (UniProt P41143 1-372)
[5] = target: P2RY12 (UniProt Q9H244 1-342)
[6] = target: PROKR1 (UniProt Q8TCW9 1-393)
[7] = target: T1, PTGER3 (UniProt P43115 1-390, limits assumed)
T1 sequence (looked up): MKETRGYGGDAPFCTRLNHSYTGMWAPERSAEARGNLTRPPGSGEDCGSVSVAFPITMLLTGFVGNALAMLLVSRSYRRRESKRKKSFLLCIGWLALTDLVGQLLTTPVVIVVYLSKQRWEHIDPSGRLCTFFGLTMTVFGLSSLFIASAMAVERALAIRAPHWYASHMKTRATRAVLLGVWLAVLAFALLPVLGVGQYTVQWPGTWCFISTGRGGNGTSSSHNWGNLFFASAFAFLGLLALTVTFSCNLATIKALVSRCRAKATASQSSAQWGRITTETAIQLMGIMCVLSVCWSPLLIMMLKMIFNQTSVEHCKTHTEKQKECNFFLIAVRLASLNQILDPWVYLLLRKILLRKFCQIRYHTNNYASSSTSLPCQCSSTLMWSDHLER

[8] = target: SCTR (UniProt P47872 23-440)
Sequence of SCTR (P47872 23-440 limits assumed): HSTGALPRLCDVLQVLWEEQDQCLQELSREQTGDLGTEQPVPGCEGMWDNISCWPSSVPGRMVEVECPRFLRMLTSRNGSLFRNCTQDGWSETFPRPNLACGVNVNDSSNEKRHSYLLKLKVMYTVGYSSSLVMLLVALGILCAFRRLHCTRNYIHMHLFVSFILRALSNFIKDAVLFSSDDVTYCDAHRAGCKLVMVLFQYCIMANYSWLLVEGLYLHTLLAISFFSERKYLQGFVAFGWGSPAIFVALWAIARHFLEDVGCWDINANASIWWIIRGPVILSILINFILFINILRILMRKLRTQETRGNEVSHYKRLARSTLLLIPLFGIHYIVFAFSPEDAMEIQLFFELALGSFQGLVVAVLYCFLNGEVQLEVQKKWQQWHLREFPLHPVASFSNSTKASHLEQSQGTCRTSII

[9] = target: SSTR1 (UniProt P30872 1-391)
Sequence of SSTR1 (P30872 whole entry): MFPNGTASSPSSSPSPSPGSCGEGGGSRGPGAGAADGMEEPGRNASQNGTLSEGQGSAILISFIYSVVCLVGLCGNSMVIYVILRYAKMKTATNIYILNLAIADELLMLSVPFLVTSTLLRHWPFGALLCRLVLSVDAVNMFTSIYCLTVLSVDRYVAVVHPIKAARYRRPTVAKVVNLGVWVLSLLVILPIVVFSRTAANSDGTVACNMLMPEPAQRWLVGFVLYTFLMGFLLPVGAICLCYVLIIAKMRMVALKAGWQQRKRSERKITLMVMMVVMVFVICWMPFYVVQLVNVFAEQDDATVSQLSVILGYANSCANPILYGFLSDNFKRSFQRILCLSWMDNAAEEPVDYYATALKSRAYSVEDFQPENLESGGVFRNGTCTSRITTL

[10] = target: TSHR(L) (UniProt P16473 21-764, limits assumed)
[11] = target: T2, VIPR2 (UniProt P41587 24-438)
T2 sequence (looked up): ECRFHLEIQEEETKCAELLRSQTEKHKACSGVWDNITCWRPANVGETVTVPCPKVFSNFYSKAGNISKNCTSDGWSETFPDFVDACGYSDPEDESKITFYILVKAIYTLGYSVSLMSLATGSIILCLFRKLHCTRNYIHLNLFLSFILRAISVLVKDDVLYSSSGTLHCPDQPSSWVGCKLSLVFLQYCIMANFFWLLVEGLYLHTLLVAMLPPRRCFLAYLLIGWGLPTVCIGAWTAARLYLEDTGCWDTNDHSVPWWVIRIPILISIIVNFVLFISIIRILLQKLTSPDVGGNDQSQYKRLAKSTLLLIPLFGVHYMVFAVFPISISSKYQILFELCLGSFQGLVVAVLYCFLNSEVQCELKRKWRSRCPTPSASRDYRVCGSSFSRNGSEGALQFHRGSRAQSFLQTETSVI

[12] = target: T3, CXCR2 (UniProt P25025 1-360)
T3 sequence (looked up): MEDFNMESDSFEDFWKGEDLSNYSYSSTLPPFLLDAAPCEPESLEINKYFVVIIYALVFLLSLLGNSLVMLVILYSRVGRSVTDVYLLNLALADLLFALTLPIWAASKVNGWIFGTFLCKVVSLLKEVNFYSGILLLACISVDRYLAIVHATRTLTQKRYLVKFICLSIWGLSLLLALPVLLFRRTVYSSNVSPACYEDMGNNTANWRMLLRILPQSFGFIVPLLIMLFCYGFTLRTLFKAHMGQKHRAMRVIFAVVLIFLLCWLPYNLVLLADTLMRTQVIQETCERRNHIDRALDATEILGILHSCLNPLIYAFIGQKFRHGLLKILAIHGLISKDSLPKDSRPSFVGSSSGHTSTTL

[13] = target: T4, EDG6 (UniProt O95977 1-384)
T4 sequence (looked up): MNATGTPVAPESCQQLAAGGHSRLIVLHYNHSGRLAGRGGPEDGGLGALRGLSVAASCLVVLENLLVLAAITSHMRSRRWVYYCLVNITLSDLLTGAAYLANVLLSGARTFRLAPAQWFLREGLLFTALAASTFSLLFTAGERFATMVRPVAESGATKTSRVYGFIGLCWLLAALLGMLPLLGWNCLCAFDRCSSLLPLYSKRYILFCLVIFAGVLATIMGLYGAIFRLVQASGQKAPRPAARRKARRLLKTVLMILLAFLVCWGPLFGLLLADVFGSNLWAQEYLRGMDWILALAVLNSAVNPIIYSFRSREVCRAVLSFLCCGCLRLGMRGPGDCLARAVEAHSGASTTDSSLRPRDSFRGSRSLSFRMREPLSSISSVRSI

[14] = target: T5, ADRA2C (UniProt P18825 1-462)
T5 sequence (looked up): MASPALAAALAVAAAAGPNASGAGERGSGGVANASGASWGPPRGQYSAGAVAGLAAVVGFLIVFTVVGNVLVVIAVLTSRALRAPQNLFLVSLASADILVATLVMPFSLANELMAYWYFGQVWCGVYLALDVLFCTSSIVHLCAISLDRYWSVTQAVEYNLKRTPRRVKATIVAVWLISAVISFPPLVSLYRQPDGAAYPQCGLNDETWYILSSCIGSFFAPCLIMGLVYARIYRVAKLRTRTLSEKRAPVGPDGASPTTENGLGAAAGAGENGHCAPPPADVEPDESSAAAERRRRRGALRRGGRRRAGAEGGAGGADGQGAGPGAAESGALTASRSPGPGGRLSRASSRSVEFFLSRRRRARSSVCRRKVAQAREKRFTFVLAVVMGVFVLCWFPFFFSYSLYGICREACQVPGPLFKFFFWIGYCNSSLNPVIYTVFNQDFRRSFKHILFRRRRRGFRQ

Sequence of P2RY12 (Q9H244 whole entry, one chain of several): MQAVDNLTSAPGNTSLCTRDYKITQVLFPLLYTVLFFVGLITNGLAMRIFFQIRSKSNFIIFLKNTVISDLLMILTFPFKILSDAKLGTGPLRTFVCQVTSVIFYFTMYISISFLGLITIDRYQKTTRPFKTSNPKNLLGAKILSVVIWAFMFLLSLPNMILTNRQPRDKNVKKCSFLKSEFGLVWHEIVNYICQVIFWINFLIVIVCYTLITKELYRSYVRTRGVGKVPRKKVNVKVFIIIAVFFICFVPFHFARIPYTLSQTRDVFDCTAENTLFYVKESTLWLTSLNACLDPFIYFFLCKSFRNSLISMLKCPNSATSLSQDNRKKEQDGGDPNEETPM
Sequence of HTR5A (P47898 whole entry): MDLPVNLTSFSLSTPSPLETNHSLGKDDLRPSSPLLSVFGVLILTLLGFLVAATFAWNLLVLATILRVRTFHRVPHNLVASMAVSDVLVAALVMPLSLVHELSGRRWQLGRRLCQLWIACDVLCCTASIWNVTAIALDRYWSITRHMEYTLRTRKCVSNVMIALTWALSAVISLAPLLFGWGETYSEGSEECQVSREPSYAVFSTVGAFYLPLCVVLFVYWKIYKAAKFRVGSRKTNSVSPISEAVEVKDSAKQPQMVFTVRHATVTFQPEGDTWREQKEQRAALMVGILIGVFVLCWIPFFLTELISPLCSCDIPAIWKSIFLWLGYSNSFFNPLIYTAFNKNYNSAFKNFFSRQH
Sequence of NMBR (P28336 whole entry): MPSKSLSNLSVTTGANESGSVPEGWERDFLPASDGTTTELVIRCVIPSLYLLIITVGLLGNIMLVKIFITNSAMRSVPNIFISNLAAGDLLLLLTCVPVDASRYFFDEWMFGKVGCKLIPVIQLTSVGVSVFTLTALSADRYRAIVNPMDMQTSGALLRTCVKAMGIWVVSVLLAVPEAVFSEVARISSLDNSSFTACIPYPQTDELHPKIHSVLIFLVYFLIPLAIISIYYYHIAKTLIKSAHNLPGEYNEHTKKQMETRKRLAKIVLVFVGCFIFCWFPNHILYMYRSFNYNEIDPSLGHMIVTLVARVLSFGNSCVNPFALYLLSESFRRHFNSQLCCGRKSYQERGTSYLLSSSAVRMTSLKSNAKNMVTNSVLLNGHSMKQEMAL
Sequence of OPRD1 (P41143 whole entry): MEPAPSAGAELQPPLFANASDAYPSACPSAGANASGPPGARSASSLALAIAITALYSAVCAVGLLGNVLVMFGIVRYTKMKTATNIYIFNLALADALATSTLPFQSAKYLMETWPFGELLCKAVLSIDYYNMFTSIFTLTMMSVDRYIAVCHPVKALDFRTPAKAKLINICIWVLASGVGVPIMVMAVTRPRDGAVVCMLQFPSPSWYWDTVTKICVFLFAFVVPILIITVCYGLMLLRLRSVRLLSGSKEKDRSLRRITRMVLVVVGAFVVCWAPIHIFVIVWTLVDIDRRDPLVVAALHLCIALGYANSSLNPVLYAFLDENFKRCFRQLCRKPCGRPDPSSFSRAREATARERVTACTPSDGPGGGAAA
Sequence of PROKR1 (Q8TCW9 whole entry): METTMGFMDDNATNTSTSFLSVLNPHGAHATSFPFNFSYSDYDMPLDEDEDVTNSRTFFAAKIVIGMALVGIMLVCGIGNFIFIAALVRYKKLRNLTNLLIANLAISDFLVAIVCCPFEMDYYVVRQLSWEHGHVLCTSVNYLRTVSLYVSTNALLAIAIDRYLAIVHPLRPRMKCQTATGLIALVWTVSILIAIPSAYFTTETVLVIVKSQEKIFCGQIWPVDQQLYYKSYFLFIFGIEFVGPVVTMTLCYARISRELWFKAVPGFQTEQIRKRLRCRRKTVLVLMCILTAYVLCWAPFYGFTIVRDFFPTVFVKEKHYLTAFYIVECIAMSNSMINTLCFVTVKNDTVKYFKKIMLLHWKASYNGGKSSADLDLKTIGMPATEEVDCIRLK
Sequence of MRGPRX1 (Q96LB2 whole entry): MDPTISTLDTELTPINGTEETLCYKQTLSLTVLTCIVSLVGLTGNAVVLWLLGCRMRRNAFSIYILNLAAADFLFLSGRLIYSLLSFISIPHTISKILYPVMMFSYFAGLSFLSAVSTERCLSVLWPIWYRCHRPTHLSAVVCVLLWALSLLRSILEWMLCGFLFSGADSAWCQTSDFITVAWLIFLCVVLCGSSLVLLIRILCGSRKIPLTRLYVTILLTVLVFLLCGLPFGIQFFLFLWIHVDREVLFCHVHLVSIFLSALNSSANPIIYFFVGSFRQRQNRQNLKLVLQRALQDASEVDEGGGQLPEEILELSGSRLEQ

QATVGDVNTDRPGLLDLK (also: synthesised on Rink amide resin, C-terminal amide not given here outright) [octadecaneuropeptide (ODN)]
% Activity, arrestin, antagonist mode, 2.5 uM [1]: -0.3%
% Activity, arrestin, antagonist mode, 2.5 uM [2]: 3.8%
% Activity, arrestin, antagonist mode, 2.5 uM [3]: -7.7%
% Activity, arrestin, antagonist mode, 2.5 uM [4]: 10%
% Activity, arrestin, antagonist mode, 2.5 uM [5]: -11%
% Activity, arrestin, antagonist mode, 2.5 uM [6]: -12.4%
% Activity, arrestin, antagonist mode, 2.5 uM [7]: -10%
% Activity, arrestin, antagonist mode, 2.5 uM [8]: 7.7%
% Activity, arrestin, antagonist mode, 2.5 uM [9]: -1.6%
% Activity, arrestin, antagonist mode, 2.5 uM [10]: -19.1%
% Activity, arrestin, antagonist mode, 2.5 uM [11]: -6.7%
% Activity, arrestin, antagonist mode, 2.5 uM [12]: -9.8%
% Activity, arrestin, antagonist mode, 2.5 uM [13]: 4.5%
% Activity, arrestin, antagonist mode, 2.5 uM [14]: -26.4%
